Data reported in paper PMC9021610.

What was measured:
[1] = molecular target: nsp12 (RdRp catalytic subunit, Sf9) (SARS-CoV-2, UniProt P0DTD1 4393-5324); test: EMSA; nsp12 alone; conditions: protein: recombinant; tags: 6xHis (Results: C-terminal; Methods: His tag after 5' ATG); label: 5'-biotin on strand 1 (S1); 5' overhang 10 nt (U10) on strand 2
[2] = molecular target: nsp12 (RdRp catalytic subunit, Sf9);nsp7;nsp8 (SARS-CoV-2;SARS-CoV-2;SARS-CoV-2, UniProt P0DTD1;P0DTD1;P0DTD1 4393-5324;3860-3942;3943-4140, ||); test: EMSA; conditions: protein: recombinant;recombinant;recombinant; tags: 6xHis (Results: C-terminal; Methods: His tag after 5' ATG);6xHis (Results: C-terminal; legend: His6-nsp7);6xHis (Results: C-terminal; legend: His6-nsp8); copies: 1;1;2; label: 5'-biotin on strand 1 (S1); 5' overhang 10 nt (U10) on strand 2

B1: S1*/S2 RNA primer/template (dsRNA)
RNA 1: GCUAUGUGAGAUUAAGAAUU
RNA 2: UUUUUUUUUUAAUUCUUAAUCUCACAUAGC
[1]
  binding result: binds
[2]
  binding result: binds
